{"source": "patent US20200199244A1", "about": "(published 2020)", "binders": {"B1": {"name": "BMS3h-56-229 (other)", "VH": "EVQLLESGGGLVQPGGSLRLSCAASGFTFRDYEMWWVRQAPGKGLERVSAINPYGSLTYYADSVKGRFTISRDNSKNTLYLQMNSLRAEDTAVYYCAKLPFTFDDWGQGTLVTVSS", "notes": "domain antibody (dAb): single human VH domain"}, "B2": {"name": "BMS3h-56-253 (other)", "VH": "EVQLLESGGGLVQPGGSLRLSCAASGFTFRDYEMWWVRQAPGKGLERVSAINPAGGYTYYADSVKGRFTISRDNSKNTLYLQMNSLRAEDTAVYHCAKLPFTFEDWGQGTLVTVSS", "notes": "as for B1"}, "B3": {"name": "BMS3h-56-243 (other)", "VH": "EVQLLESGGGLVQPGGSLRLSCAASGFTFRDYEMWWVRQAPGKGLERVSAINPWGGFTYYADSVKGRFTISRDNSKNTLYLQMNSLRAEDTAVYYCAKLPFTFEDWGQGTLVTVSS", "notes": "as for B1"}, "B4": {"name": "BMS3h-56-232 (other)", "VH": "EVQLLESGGGLVQPGGSLRLSCAASGFTFRDYEMWWVRQAPGKGLERVSAINPWGSHTYYADSVKGRFTISRDNSKNTLYLQMNSLRAEDTAVYYCAKLPFTFDDWGQGTLVTVSS", "notes": "as for B1"}, "B5": {"name": "BMS3h-56-239 (other)", "VH": "EVQLLESGGGLVQPGGSLRLSCAASGFTFRDYEMWWVRQAPGKGLERVSAINPWGSLTYYADSVKGRFTISRDNSKNTLYLQMNSLRAEDTAVYYCAKLPFTFDDWGQGTLVTVSS", "notes": "as for B1"}, "B6": {"name": "BMS3h-56-244 (other)", "VH": "EVQLLESGGGLVQPGGSLRLSCAASGFTFRDYEMWWVRQAPGKGLERVSAINPWGGLTYYADSVKGRFTISRDNSKNTLYLQMNSLRAEDTAVYYCAKLPFTFDDWGQGTLVTVSS", "notes": "as for B1"}, "B7": {"name": "BMS3h-56-248 (other)", "VH": "EVQLLESGGGLVQPGGSLRLSCAASGFTFRDYEMWWVRQAPGKGLERVSAINPYGNLTYYADSVKGRFTISRDNSKNTLYLQMNSLRAEDTAVYYCAKLPFTFDDWGQGTLVTVSS", "notes": "as for B1"}, "B8": {"name": "BMS3h-38-238 (other)", "VH": "EVQLLASGGGLVQPGGSLRLSCAASGFTFEEEEMIWVRQAPGKGLEWVSAISRSGYSTYYADSVKGRFTISRDNSKNTLYLQMNSLRAEDTAVYYCGKEPFRYDYWGQGTLVTVSS", "notes": "as for B1"}, "B9": {"name": "BMS3h-38-201 (other)", "VH": "EVQLLASGGGLVQPGGSLRLSCAASGFTFEEEEMIWVRQAPGKGLEWVSAISGSGGSTYYADSVKGRFTISRDNSKNTLYLQMNSLRAEDTAVYYCGKEPFYYDYWGQGTLVTVSS", "notes": "as for B1"}, "B10": {"name": "BMS3h-37-205 (other)", "VH": "EVQLLESGGGLVQPGGSLRLSCAASGFTFEWYEMQWVRRAPGKGLEWVSAISGDGYRTYYADSVKGRFTISRDNSKNTLYLQMNSLRAEDTAVYYCAKELEYFDYWGRGTLVTVSS", "notes": "as for B1"}, "B11": {"name": "BMS3h-37-207 (other)", "VH": "EVQLLESGGGLVQPGGSLRLSCAASGFTFEWYEMQWVRRAPGKGLEWVSAISGDGYRTYYADSVKGRFTISRDNSKNTLYLQMNSLRAEDTAVYYCAKELAFFDYWGRGTLVTVSS", "notes": "as for B1"}, "B12": {"name": "BMS3h-37-213 (other)", "VH": "EVQLLESGGGLVQPGGSLRLSCAASGFTFEWYEMQWVRRAPGKGLEWVSAISGDGYRTYYADSVKGRFTISRDNSKNTLYLQMNSLRAEDTAVYYCAKELLFFDYRGRGTLVTVSS", "notes": "as for B1"}, "B13": {"name": "BMS3h-37-212 (other)", "VH": "EVQLLESGGGLVRPGGSLRLSCAASGFTFEWYEMQWVRRAPGKGLEWVSAISGDGYRTYYADSVKGRFTISRDNSKNTLYLQMNSLRAEDTAVYYCAKELEFFDYWGRGTLVTVSS", "notes": "as for B1"}, "B14": {"name": "BMS3h-37-206 (other)", "VH": "EVQLLESGGGLVQPGGSLRLSCAASGFTFEWYEMQWVRRAPGKGLEWVSAISGDGYRTYYADSVKGRFTISRDNSKNTLYLQMNSLRAEDTAVYYCAKGLEYFDYWGRGTLVTVSS", "notes": "as for B1"}}, "note": "Values joined by “and” are separate entries in the source; they are usually repeats but may differ in a detail not shown here. Equal values may be shown once."}
{"target": "T1, human CD40 (BMS, CY24FEB06-01) (human, UniProt P25942 21-193)", "T1 construct": "Soluble human CD40 reagent of the ELISA RBA", "T1 sequence (P25942 21-193 limits assumed)": "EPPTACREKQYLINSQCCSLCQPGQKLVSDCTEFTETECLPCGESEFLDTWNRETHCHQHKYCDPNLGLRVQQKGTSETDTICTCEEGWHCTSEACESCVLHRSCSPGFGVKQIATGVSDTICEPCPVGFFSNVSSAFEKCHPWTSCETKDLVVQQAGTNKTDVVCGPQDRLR", "assay": "ELISA RBA, competition with IZ-CD40L for soluble human CD40;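 also: Neutravidin-coated 384-well plates, dAb–human CD40 complex incubated 2 h at room temperature, read-out as absorbance at 450 nm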", "method": "Clear walled High Bind, 384-well plates (Corning, UK) were coated with 25 μl of 1 μg/ml Neutravidin in 0.2 M carbonate-bicarbonate buffer, pH 9.4 overnight at 4° C. The following day, assay plates were washed with 0.1% (v/v) Tween PBS buffer, blocked with 1% (w/v) BSA in PBS for 1 hour at room temperature and washed again. […] Following washing of the assay plate, the dAb:human CD40 complex was incubated in the assay plate at room temperature for 2 hours with gentle agitation. […] Absorbance signal was measured using a SpectraMax® M5e plate reader (Molecular Devices) at 450 nm following neutralization with 1M HCl solution."}
{"binder": "B1", "EC50": "4.1 nM"}
{"binder": "B2", "EC50": "1.3 nM"}
{"binder": "B3", "EC50": "9.9 nM"}
{"binder": "B4", "EC50": "2.8 nM and 3.7 nM"}
{"binder": "B5", "EC50": "2.7 nM"}
{"binder": "B6", "EC50": "6 nM"}
{"binder": "B7", "EC50": "0.7 nM"}
{"binder": "B8", "EC50": "5.1 nM"}
{"binder": "B9", "EC50": "3.4 nM"}
{"binder": "B10", "EC50": "3.1 nM and 4.4 nM"}
{"binder": "B11", "EC50": "2.5 nM and 6.6 nM"}
{"binder": "B12", "EC50": "16 nM"}
{"binder": "B13", "EC50": "24 nM"}
{"binder": "B14", "EC50": "3.2 nM and 8.9 nM"}
